± gives the half width of the 95% confidence interval.
What was measured:
[1] = folding stability dG unfold from chymotrypsin proteolysis; higher = more stable
Method in brief: (§1)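 Digests were run with trypsin and chymotrypsin at 11 concentrations in threefold dilutions, plus a no-protease condition, on designed mini-proteins in a PA-tagged cDNA display construct. The mini-proteins were under 80 residues, had no cysteine, and were kept only when AlphaFold2 dimer inter-PAE was above 15. After sequencing, Bayesian fitting of the counts gave K50, from which unfolding free energy was derived against a sequence-predicted unfolded-state K50 and a shared folded-state K50, per protease or combined.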

[2] = folding stability dG unfold (combined trypsin and chymotrypsin); higher = more stable
Method in brief: as §1

[3] = folding stability dG unfold from trypsin proteolysis; higher = more stable
Method in brief: as §1

Sequence	folding stability dG unfold [1] [kcal/mol]	folding stability dG unfold [2] [kcal/mol]	folding stability dG unfold [3] [kcal/mol]
SAEELAEAEARRLGVDPAAVALEVTEEVDPLTGKPRKIVTVTIALPDRAYVITVDASDGTVLERRPLEAASA [r9_1219_JUSTAS]	2.15 ± 0.034	2.28 ± 0.081	2.33 ± 0.051
SAEERVFLVPVERRPDGSVRLRFVRPDRVVELELPAGFTVEDALQALSAHPDLRVEVLEAHPDLVLVRGSAG [r14_404_TrMRF]	2.741 ± 0.023	2.46 ± 0.054	1.824 ± 0.017
SAEEVEIEIEIVIKMSEEEAERLAKELAEELARELGAEIVDVEVEVVEVDGELYVRIRVKIRLPKEELESAG [r14_219_TrROS_Hall]	4.7 ± 0.17	4.23 ± 0.14	3.47 ± 0.098
SAEIEVKPGEELEITVNGKKLRITVEKVEVRVEVKELPPPPPPEVEVYTLTRDPATDELRLERRTAEELASA [r9_881_TrROS_Hall]	0.352 ± 0.24	0.23 ± 0.15	0.0576 ± 0.22
SAEIPPDLIAVILGIEPYRFGERDFLVITAAIFRPEEPDAEVTLYTIVIEGDKIVSITPSRYRVPPEALSAG [r14_651_TrMRF]	3.86 ± 0.047	3.55 ± 0.11	2.92 ± 0.098
SAEKKVLVKVKIEVFNEDGELVEELELEVEMSAEEVKKKIKEELLKLLKEKYPDKPLTIKVEVEVKELPSAG [r14_570_TrROS_Hall]	3.61 ± 0.19	3.67 ± 0.23	4.36 ± 0.74
SAELIEALKKAGYRIKIEVEVTEVRVVRNEDGELKVEAKIKVKIEIEPLPPPPPPLSLEDLLDKNGKLVSAG [r14_569_TrROS_Hall]	3.3 ± 0.13	2.95 ± 0.56	3.26 ± 0.41
SAENGKWVEVELPIEIWMGNDQLDNFIEEARDIARKHGFEITDIPIKYEPSPDGYRRATIPVKITVPLPSAG [r14_109_TrROS]	1.06 ± 0.088	1.13 ± 0.14	1.06 ± 0.04
SAEPKRYYALVVKRPDGKWLVFYFEDVEEGRERFEEFLRKEFPEDFEVELFEVEPSEAESIEKLLEALGSAG [r14_900_TrMRF]	4.8 ± 0.091	4.61 ± 0.17	3.07 ± 0.14
SAEVETVTLELELPEDGYRVTITVTYNKETGEVTVEIRIINPNGEEKTITIKVKSLEEALKKLEFKLLPSAG [r14_749_TrROS_Hall]	2.45 ± 0.054	2.36 ± 0.13	2.13 ± 0.056
SAEVIEKTLTETVIGDTVVTPSVVEFPDGSVVEKVTTVSPDGTVTVTTYYFPPDGVRTFLSTTTVPLDLSAG [r14_680_JUSTAS]	1.16 ± 0.07	0.939 ± 0.07	0.585 ± 0.03
SAFKIERDPGNGQRKIKIEIPIIFPMGPEMRNMFKNMIKQWLAKHNPNVDIEIDIIPVKSPEQALEQIGSAG [r14_406_TrROS]	2.61 ± 0.3	1.98 ± 0.47	1.48 ± 0.15
SAFRFPPGQTIMIKIEWRNPGNGKKRKWSIPIRVDPDKGRVITLDMLKSFLRKWGFNPEDVKIEDITVMSAG [r14_93_TrROS]	1.31 ± 0.069	1.81 ± 0.041	2.145 ± 0.013
SAGAGKTPDGKEYIIPFTFKNENGETTPEEIEEKIKEFTAKHPEVKIKEIKAIKEGDSVKVLVVVEKPASAG [r5_688_TrMRF]	2.77 ± 0.053	2.74 ± 0.28	2.61 ± 0.12
SAGAHTVSVHYVEPGSKKLSSVETSEITLEPGEELPLDEVAARFPSENYEVTAQEEPDAITITIYVYRGSAG [r5_269_JUSTAS]	0.522 ± 0.27	0.547 ± 0.087	0.303 ± 0.062
SAGAIERILEWLKDQPPGDEVPIPIRLPNGWYIKINIEYNPEENKPKIEVEYYDPDDGKPRQEQKFTIPSAG [r5_35_TrROS]	0.899 ± 0.17	1.31 ± 0.25	1.59 ± 0.077
SAGAKAEPGPSGRLRIYLPDEPIELDVTEDGTVTLTFPNGEKVEFPVEKEKAALVLAELNALGAVVVPQSAG [r5_753_TrMRF]	1.09 ± 0.055	0.712 ± 0.084	-0.367 ± 0.19
SAGAMQTVTLPTPDGRTVTLRHPGISVSVDPEKRTVTISVPSLGKVYTLTFAPDGTVAELSEEPIPELESAG [r5_342_JUSTAS]	3.231 ± 0.025	2.82 ± 0.11	1.53 ± 0.03
